The values below come from patent US20080096187A1.

What all share (assay): cell-based or functional assay
The target in test [1] is HIV-2 UC-1 envelope glycoprotein (HIV-2 UC1) (UniProt Q76638).
Test [2] concerns the target HIV-2 7312A envelope glycoprotein (HIV-2 isolate 7312A).
The target in test [3] is HIV-1 YU2 envelope glycoprotein (HIV-1 YU2) (UniProt P35961).
Test [4] addresses HIV-2 7312A envelope glycoprotein with substitutions 660 (K to A), 662 (N to D), 663 (S to K) and 665 (D to A) (HIV-2 isolate 7312A).
Test [5] addresses HIV-2 7312A envelope glycoprotein with substitutions 675 (L to I) and 676 (A to T) (HIV-2 isolate 7312A).
Test [6] deals with HIV-2 ST envelope glycoprotein (HIV-2 ST) (UniProt P20872).
Test [7] deals with HIV-2 7312A/H419R envelope glycoprotein (HIV-2 isolate 7312A).
The target in test [8] is HIV-2 7312A/V434M envelope glycoprotein (HIV-2 isolate 7312A).
In test [9] the target is HIV-2 7312A/Q422L envelope glycoprotein (HIV-2 isolate 7312A).

Regarding 2F5 (antibody), the IC50 (neutralization) in the absence of sCD4 in [1] and in test [2] was > 25 µg/mL throughout. Moreover, the IC50 (neutralization) in the presence of sCD4 in test [1] and in [2] was > 25 µg/mL each time. Further, the IC50 (neutralization) in test [2] was > 50 µg/mL; in test [3], 25 µg/mL; in [4] it was < 0.1 µg/mL.
For the substance 2G12 (antibody), in test [1], the IC50 (neutralization) in the absence of sCD4 was > 25 µg/mL and the IC50 (neutralization) in the presence of sCD4 is > 25 µg/mL. Moreover, in test [2], the IC50 (neutralization) in the absence of sCD4 was > 25 µg/mL and the IC50 (neutralization) in the presence of sCD4 was > 25 µg/mL.
In the case of 4E10 (antibody), the IC50 (neutralization) was 1.2 µg/mL in test [1]; > 50 µg/mL in test [2]; 0.8 µg/mL in [5]; 25 µg/mL in test [3]; 0.1 µg/mL in test [6].
In the case of A32 (antibody), in [1], the IC50 (neutralization) in the absence of sCD4 was > 25 µg/mL and the IC50 (neutralization) in the presence of sCD4 is > 25 µg/mL. For the same substance, in test [2], the IC50 (neutralization) in the absence of sCD4 was > 25 µg/mL and the IC50 (neutralization) in the presence of sCD4 is > 25 µg/mL.
In the case of E51 (antibody), the IC50 (neutralization) in the absence of sCD4 in [1], in [7], in [8], in test [2] and in test [9] was > 25 µg/mL in each case. For the same substance, the IC50 (neutralization) in the presence of sCD4 in [1] was 13 µg/mL; in [7], 22 µg/mL; in [8], 4 µg/mL; in test [2], > 25 µg/mL; in test [9] it was > 25 µg/mL.
As to ED47 (antibody), the IC50 (neutralization) in the absence of sCD4 in [1], in test [7], in [8], in test [2] and in test [9] was > 25 µg/mL in each case. In addition, the IC50 (neutralization) in the presence of sCD4 in test [1] was > 25 µg/mL; in test [7], 4.7 µg/mL; in [8], > 25 µg/mL; in test [2], > 25 µg/mL; in [9], > 25 µg/mL.
With ED49 (antibody), the IC50 (neutralization) in the absence of sCD4 in [1], in test [7], in test [8], in [2] and in test [9] was > 25 µg/mL throughout. Further, the IC50 (neutralization) in the presence of sCD4 in test [1] stood at 12 µg/mL; in test [7] it was 3.3 µg/mL; in test [8], 2.4 µg/mL; in [2] it was 5.4 µg/mL; in test [9] it was 3 µg/mL.
Regarding F105 (antibody), in test [1], the IC50 (neutralization) in the absence of sCD4 is > 25 µg/mL and the IC50 (neutralization) in the presence of sCD4 was > 25 µg/mL. Further, in [2], the IC50 (neutralization) in the absence of sCD4 was > 25 µg/mL and the IC50 (neutralization) in the presence of sCD4 is > 25 µg/mL.
In the case of X5 (antibody), the IC50 (neutralization) in the absence of sCD4 in test [1], in [7], in [8], in test [2] and in test [9] was > 25 µg/mL throughout. Besides, the IC50 (neutralization) in the presence of sCD4 in [1] is > 25 µg/mL; in test [7], > 25 µg/mL; in test [8], 2.5 µg/mL; in test [2], > 25 µg/mL; in test [9], > 25 µg/mL.
Regarding b12 (antibody), the IC50 (neutralization) in the absence of sCD4 in [1] and in test [2] was > 25 µg/mL in each case. The IC50 (neutralization) in the presence of sCD4 in test [1] and in [2] was > 25 µg/mL each time. Further, the IC50 (neutralization) in test [2] was > 50 µg/mL; in test [3], 3 µg/mL.
